From patent publication US9889181B2, “Bacteriophage lysin and antibiotic combinations against gram positive bacteria” (priority 2012, dated 2018)
Like-named read-outs stand apart in the source and are kept apart here.

Tests used:
[1] = test system: Escherichia coli; assay: MIC, broth microdilution (CLSI M07-A9)
[2] = test system: Streptococcus mutans; assay: MIC, broth microdilution (CLSI M07-A9); settings: Streptococcus mutans (12)
[3] = test system: Lactococcus spp.; assay: MIC, human gut bacteria; format: cell-based; settings: N 3
[4] = test system: MRSA; assay: MIC, broth microdilution (CLSI M07-A9)
[5] = test system: MRSA strain MW2; assay: Murine bacteremia, low challenge model; format: in vivo, BALB/c mice; settings: single dose at 4 hours; 1.25 mg/kg PlySs2, 2 mg/kg daptomycin
[6] = test system: Acinetobacter baumannii; assay: MIC, broth microdilution (CLSI M07-A9); settings: Acinetobacter baumannii (8)
[7] = test system: Staphylococcus lugdiensis; assay: MIC, broth microdilution (CLSI M07-A9); settings: Staphylococcus lugdiensis (10)
[8] = test system: 20 different MSSA and 42 MRSA strains; assay: Time-kill assay, single agents at 1×MIC; format: cell-based, Staphylococcus aureus
Experimental: In order to more fully evaluate PlySs2's applicability to clinical Staphylococcal infections, time kill studies were undertaken against numerous Staphylococcus aureus strains, including methicillin resistant and methicillin sensitive strains. Time kill assays were performed according to CLSI methodology (CLSI document M07-A9 column 32 No. 2) on 42 methicillin resistant S. aureus (MRSA) strains and 20 methicillin sensitive S. aureus (MSSA) strains. Cultures of each strain (5.5×10^5-1×10^6 starting inoculum) were treated with PlySs2 lysin and with antibiotics daptomycin, oxacillin or vancomycin for comparison for 6 hours with aeration. MRSA and MSSA strains were treated with PlySs2, daptomycin and vancomycin. MSSA strains were also treated with oxacillin. 1×MIC concentrations of the different antibiotics were utilized, based on published and established antibiotic MIC values. PlySs2 lysin treatment was at approximately 1×MIC as previously determined (see TABLE 2 above). Culture aliquots were removed hourly up to 6 hours (time points taken at 15 and 30 min, 1 hr, 2 hr, 3 hr, 4 hr, 5 hr, and 6 hr) and added to a PBS/charcoal solution (to inactivate each drug), which was then serially diluted and plated for bacterial viability. The resulting log CFU/mL was plotted for each culture. Growth controls were included for each strain and represent bacterial growth in the absence of any antibacterial agent. Exemplary log kill curves for selected MRSA strains are depicted in FIG. 1. Exemplary log kill curves for selected MSSA strains are depicted in FIG. 2.
Rapid-kill kinetics are desirable in the clinical setting to treat patients with fulminant bacterial infections.

[9] = test system: MRSA strain MW2 (also strains 738, 832); format: in vivo, BALB/c mice; settings: 10^9 CFU, dosing at 2 hours, PlySs2 5.25 mg/kg
[10] = Staphylcoccus aureus Methicillin resistant (120)
[11] = FIG. 27B, daptomycin 50 mg/kg once daily
[12] = FIG. 27E, vancomycin 110 mg/kg twice daily

B1: PlySs2: bacteriophage lysin derived from Streptococcus suis, amino acid sequence of FIG. 29 (SEQ ID NO: 1) (protein, listed as Streptococcus suis)
chain: MTTVNEALNNVRAQVGSGVSVGNGECYALASWYERMISPDATVGLGAGVGWVSGAIGDTISAKNIGSSYNWQANGWTVSTSGPFKAGQIVTLGATPGNPYGHVVIVEAVDGDRLTILEQNYGGKRYPVRNYYSAASYRQQVVHYITPPGTVAQSAPNLAGSRSYRETGTMTVTVDALNVRRAPNTSGEIVAVYKRGESFDYDTVIIDVNGYVWVSYIGGSGKRNYVATGATKDGKRFGNAWGTFK
In the case of B1, the “MIC 50%” value ([1]; Escherichia coli (6)) is reported as greater than 512 mg/L, the “MIC 90%” value ([1]; Escherichia coli (6)) is reported as greater than 512 mg/L and the “MIC Range” value ([1]; Escherichia coli (6)) is reported as greater than 512 mg/L. The “CF-301 MIC” value ([1]; Escherichia coli, N 10, human gut bacteria) was greater than 512 mg/L, the “MIC 50%” value [2] was 64 mg/L and the “MIC 90%” value [2] was 256 mg/L. The “MIC Range” value [2] was 2 to 256 mg/L, the “CF-301 MIC” value [3] was greater than 512 mg/L and the “MIC90” value ([4]; MRSA (n = 45)) was 0.15 µM. The “MIC 50%” value [4, 10] was 4 mg/L, the “MIC 90%” value [4, 10] was 8 mg/L and the “MIC Range” value [4, 10] was 1 to 16 mg/L. For the same molecule, the MIC ([4]; strain MW2, without DTT) was 32 mg/L, the “survival at 72 hours” value [5] was 13% and the “MIC 50%” value [6] was greater than 512 mg/L. The “MIC 90%” value [6] was greater than 512 mg/L, the “MIC Range” value [6] was greater than 512 mg/L and the “MIC 50%” value [7] was 8 mg/L. For the same molecule, the “MIC 90%” value [7] was 8 mg/L, the “MIC Range” value [7] was 8 mg/L and the “time to reach bactericidal levels (≧3-log10 reduction in CFUs)” value ([8]; 1×MIC) was no more than 30 minutes. For the same molecule, the “comparative kill” value ([8]; 1×MIC, up to 6 hours) was “greater and faster than any antibiotic”, the “maximal kill (log reduction)” value ([8]; all MRSA and MSSA strains tested, generally within the first hour of incubation) was no less than 3 log and the “24 hour survival rate” value [9, 11] was 56%. For the same molecule, the “72 hour survival rate” value [9, 11] was 18%, the “24 hour survival rate” value [9, 12] was 60% and the “72 hour survival rate” value [9, 12] was 3%.
